Data on 1 sequence can be found in PMC2841647 (PLoS ONE, 2010).

Series [1] deals with mice. Description: Open field. The series is classed as in vivo, mouse. The procedure:
Mice were treated as described above before being subjected to behavioral studies. Predictive estimation for anxiolytic properties of tat-cyclotraxin-B was assessed using open field and elevated plus-maze (EPM). Antidepressant-like action of tat-cyclotraxin-B was assessed with the forced-swim test (FST). Effects of acute treatment with tat-cyclotraxin-B on spontaneous locomotion, exploration and reactivity to a novel open field was assessed in plexiglas activity chambers (Med Associates; 45×45×31 cm). Mice were placed into the center of the open field, and activity was recorded for 30 min. Testing took place under bright ambient light conditions to increase the anxiety component of the center areas of the field (defined as the central 15×15 cm portion). Mice subjected to EPM received a double 90-interval i.v. injection of tat-cyclotraxin-B or saline buffer before being placed on the platform of the EPM and assessed for 5 min (26×5×36 cm). The diazepam control group consisted of saline buffer double-treated mice that further received a 30-min i.p. injection of diazepam (1 mg/kg). Mice were assessed for number of entries and amount of time spent in open versus closed arms. […] The total time of swimming, the number of climbing attempts and the time of immobility was recorded during the last 4 min of the session, after 2 min of habituation. […] Behaviors were recorded on videotape and scored blind.

The next series addresses T1, human TrkB receptor (Homo sapiens, UniProt Q16620).
T1 construct: expressed in transfected cells
Kind of series: KIRA-ELISA (TrkB tyrosine phosphorylation) in TetOn-rhTrkB CHO cells. It counts as cell-based. The following applies: TetOn-rhTrkB cells, with or without 4 nM BDNF. The text has this: (§1) The human recombinant TrkB receptor was fluorescently tagged at its C-terminus with the Enhanced cyan fluorescent protein (rhTrkB-ECFP) by cloning the full human TrkB sequence (kindly provided by G. M. Brodeur) into the pECFP-N1 expression vector (Clontech). For inducible expression, rhTrkB-ECFP was subcloned into the tetracycline-responsive (TetOn) vector pTRE2 (Clontech). Chinese Hamster Ovary cells stably expressing rhTrkB-ECFP (TetOn-rhTrkB cells), were produced by transfection of the pTRE2-rhTrkB-ECFP plasmid into CHO-K1 TetOn cells (Clontech) followed by clone selection in 0.25 mg/ml hygromycin B (Invitrogen) and 0.1 mg/ml geneticin (G418; Invitrogen). Resistant cells were selected based on both fluorescence intensity and KIRA-ELISA profile after an overnight incubation in presence of 1000 ng/ml doxycycline (Clontech). Cortical neurons were prepared and cultured from E16 mouse embryos as described previously. The nnr5 PC12-TrkA, nnr5 PC12-TrkB and nnr5 PC12-TrkC cells (kindly provided by M. V. Chao) are NGF non-responding mutant PC12 cells stably transfected with TrkA, TrkB and TrkC cDNA, respectively.
(§2) TrkB activity was quantified using the previously described KIRA-ELISA assay with slight modifications. Cortical neurons were seeded on polyornithin-coated flat-bottom 96-well culture plates (12×10^4 cells per well) and cultured eight days at 37°C in 5% CO2. TetOn-rhTrkB cells were seeded on flat-bottom 96-well culture plates (4×10^4 cells per well) and incubated overnight with 1000 ng/ml doxycycline (Figs. S1,S2) except when indicated. Fluorescence levels in TetOn-rhTrkB cells were verified before each assay. […] Assay was stopped by removing the medium on ice and membranes were solubilized using KIRA-ELISA solubilization buffer (NaCl 150 mM, Hepes 50 mM, Triton X-100 0.5%, thimerosal 0.01%, sodium orthovanadate 2 mM, supplemented with a cocktail of protease inhibitors) for 1 h at room temperature. Solubilized membranes were transferred for 2 h at room temperature onto ELISA microtiter plate (Nunc Maxisorp) pre-coated overnight at 4°C with appropriate antibodies [polyclonal anti-GFP (1∶5000, Clontech) for TetOn-rhTrkB, polyclonal anti-TrkB (1 µg/ml, Upstate) for cultured neurons and brain slices, for phosphorylation assays; monoclonal anti-GFP (1∶3000, Chemicon) for TetOn-rhTrkB, monoclonal anti-TrkB (1∶1000, BD Biosciences) for cultured neurons and brain slices, for total TrkB quantification]. […] Absorbance was read at 450 nm after addition of 3,3′,5′,5-tetramethyl-benzidine substrate (Sigma) and acidification with 1N hydrochloric acid.
(§3) Concentration-response and competition curves were obtained using an iterative least-squares method derived from that of Parker & Waud (1971). […] Concentration-response curves and Eadie-Hofstee plots were analyzed using two-way ANOVA. Significance over time in locomotor activity studies was given using two-way ANOVA followed by Bonferroni's post-hoc test. […] One-way ANOVA followed by post-hoc Dunnett's test was used to evaluate statistical significance compare to saline group in EPM and FST procedures. n represents the number of independent experiments.

The test system of series [2] is mice. Kind of series: Elevated plus-maze (EPM). The following applies: vs saline. It counts as in vivo, mouse. The procedure: Mice were treated as described above before being subjected to behavioral studies. Predictive estimation for anxiolytic properties of tat-cyclotraxin-B was assessed using open field and elevated plus-maze (EPM). Antidepressant-like action of tat-cyclotraxin-B was assessed with the forced-swim test (FST). Effects of acute treatment with tat-cyclotraxin-B on spontaneous locomotion, exploration and reactivity to a novel open field was assessed in plexiglas activity chambers (Med Associates; 45×45×31 cm). Mice were placed into the center of the open field, and activity was recorded for 30 min. Testing took place under bright ambient light conditions to increase the anxiety component of the center areas of the field (defined as the central 15×15 cm portion). Mice subjected to EPM received a double 90-interval i.v. injection of tat-cyclotraxin-B or saline buffer before being placed on the platform of the EPM and assessed for 5 min (26×5×36 cm). The diazepam control group consisted of saline buffer double-treated mice that further received a 30-min i.p. injection of diazepam (1 mg/kg). Mice were assessed for number of entries and amount of time spent in open versus closed arms. The FST procedure was applied to treated mice as described by Porsolt et al. (see ref. [60]). Mice were dropped individually into glass cylinder (height, 25 cm; diameter, 10 cm) containing 10 cm water height, maintained at 23–25°C. Animals were tested for a total of 6 min. The total time of swimming, the number of climbing attempts and the time of immobility was recorded during the last 4 min of the session, after 2 min of habituation. The paroxetine control group consisted of saline buffer double-treated mice that further received a 30-min i.p. injection of paroxetine (2 mg/kg). Behaviors were recorded on videotape and scored blind.

The target in series [3] is T2, native TrkB receptors in cortical neurons (Mus musculus, UniProt P15209).
T2 construct: cortical neurons naturally express TrkB receptors; endogenous in cells; host or cells: primary cortical neurons from E16 mouse embryos
T2 sequence (P15209 32-821): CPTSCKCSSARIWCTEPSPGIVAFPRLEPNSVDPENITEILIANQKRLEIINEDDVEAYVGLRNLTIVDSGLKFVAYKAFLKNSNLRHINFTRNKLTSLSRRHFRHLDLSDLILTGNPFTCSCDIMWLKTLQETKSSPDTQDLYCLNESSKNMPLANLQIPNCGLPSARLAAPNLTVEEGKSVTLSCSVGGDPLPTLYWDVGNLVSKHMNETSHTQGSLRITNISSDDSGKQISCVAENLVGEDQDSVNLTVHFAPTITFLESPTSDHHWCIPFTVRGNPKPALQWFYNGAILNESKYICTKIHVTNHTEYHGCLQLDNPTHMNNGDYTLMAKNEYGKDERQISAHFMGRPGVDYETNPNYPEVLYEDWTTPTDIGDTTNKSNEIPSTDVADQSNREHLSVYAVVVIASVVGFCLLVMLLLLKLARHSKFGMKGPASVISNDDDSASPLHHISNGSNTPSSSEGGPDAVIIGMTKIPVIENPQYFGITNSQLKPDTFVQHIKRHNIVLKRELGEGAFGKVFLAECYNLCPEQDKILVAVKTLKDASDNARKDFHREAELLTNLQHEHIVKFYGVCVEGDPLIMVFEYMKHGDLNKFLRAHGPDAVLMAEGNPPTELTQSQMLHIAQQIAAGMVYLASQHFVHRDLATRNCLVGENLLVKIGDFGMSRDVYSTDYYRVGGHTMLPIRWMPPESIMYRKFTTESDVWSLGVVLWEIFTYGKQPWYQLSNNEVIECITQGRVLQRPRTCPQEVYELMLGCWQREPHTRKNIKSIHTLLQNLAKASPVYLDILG
Kind of series: KIRA-ELISA (TrkB tyrosine phosphorylation) in primary cortical neurons. The series is classed as cell-based. The following applies: cortical neurons, with or without 4 nM BDNF.
Text: as §1, §2, §3

Series [4] in a line: Brain localization after intravenous injections (immunohistochemistry). It counts as in vivo, mouse. The following applies: mice; four hours after the last intravenous injection; cortex, hippocampus, striatum, nucleus accumbens. The procedure: Mice were injected twice with 200 µg of biotinylated tat-cyclotraxin-B. […] Brains were postfixed for 1 h in 4% paraformaldehyde and cut in 40-µm sections with a vibratome. Sections obtained at the same levels as for in vivo KIRA-ELISA analysis (see Fig. S8) were rinsed in PBS and incubated in TBS containing 0.05% Tween-20 with VectaStain ABC Elite kit (Vector Laboratories). […] Non-injected mice were used as negative controls for endogenous biotin.

The next series concerns the target T3, TrkB in brain slices (Mus musculus, UniProt P15209).
T3 construct: KIRA-ELISA analysis of brain TrkB receptors from mice; from tissue; host or cells: adult Swiss mouse brain, 300-µm coronal slices
Description: KIRA-ELISA in brain slices incubated with peptide. The series is classed as cell-based. The following applies: 1 µM directly added to the slice, BDNF 4 nM. The procedure:
TrkB activity was quantified using the previously described KIRA-ELISA assay with slight modifications. Cortical neurons were seeded on polyornithin-coated flat-bottom 96-well culture plates (12×10^4 cells per well) and cultured eight days at 37°C in 5% CO2. TetOn-rhTrkB cells were seeded on flat-bottom 96-well culture plates (4×10^4 cells per well) and incubated overnight with 1000 ng/ml doxycycline (Figs. S1,S2) except when indicated. Fluorescence levels in TetOn-rhTrkB cells were verified before each assay. […] Solubilized membranes were transferred for 2 h at room temperature onto ELISA microtiter plate (Nunc Maxisorp) pre-coated overnight at 4°C with appropriate antibodies [polyclonal anti-GFP (1∶5000, Clontech) for TetOn-rhTrkB, polyclonal anti-TrkB (1 µg/ml, Upstate) for cultured neurons and brain slices, for phosphorylation assays; monoclonal anti-GFP (1∶3000, Chemicon) for TetOn-rhTrkB, monoclonal anti-TrkB (1∶1000, BD Biosciences) for cultured neurons and brain slices, for total TrkB quantification]. […] Absorbance was read at 450 nm after addition of 3,3′,5′,5-tetramethyl-benzidine substrate (Sigma) and acidification with 1N hydrochloric acid.

T1 sequence (Q16620 32-822): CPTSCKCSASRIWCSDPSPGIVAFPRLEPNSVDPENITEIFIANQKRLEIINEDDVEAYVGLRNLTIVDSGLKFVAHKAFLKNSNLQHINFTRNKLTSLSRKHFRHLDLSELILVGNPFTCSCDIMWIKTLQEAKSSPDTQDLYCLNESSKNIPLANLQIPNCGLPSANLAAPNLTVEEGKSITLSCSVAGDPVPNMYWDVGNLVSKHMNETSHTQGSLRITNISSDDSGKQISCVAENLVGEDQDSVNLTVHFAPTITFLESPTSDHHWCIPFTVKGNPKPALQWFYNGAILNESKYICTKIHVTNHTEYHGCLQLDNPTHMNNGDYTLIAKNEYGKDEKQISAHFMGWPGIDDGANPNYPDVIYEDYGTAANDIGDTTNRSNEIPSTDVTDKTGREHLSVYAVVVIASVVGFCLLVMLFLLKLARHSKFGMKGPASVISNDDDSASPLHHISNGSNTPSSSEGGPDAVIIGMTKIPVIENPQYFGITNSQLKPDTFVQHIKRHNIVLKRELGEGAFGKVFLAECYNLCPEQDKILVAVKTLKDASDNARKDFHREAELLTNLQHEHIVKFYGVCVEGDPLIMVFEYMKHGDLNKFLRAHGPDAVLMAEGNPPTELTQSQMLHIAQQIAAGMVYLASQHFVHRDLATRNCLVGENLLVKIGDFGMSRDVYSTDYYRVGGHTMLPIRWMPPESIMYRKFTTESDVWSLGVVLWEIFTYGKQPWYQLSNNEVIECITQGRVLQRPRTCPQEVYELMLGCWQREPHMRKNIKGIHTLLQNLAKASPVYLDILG
T3 sequence (P15209 32-821): as the sequence (P15209 32-821) above

In the case of “YGRKKRRQRRRCNPMGYTKEGC [tat-cyclotraxin-B]”, in the series with mice [1] (30 min), the “locomotor activity in open field” value is on record as “did not show any alterations”. The “time in the center compartment of open field” value in the series with mice [1] (compared to saline controls) was “significantly more time”. In addition, in the series with human TrkB receptor, the “TrkB inhibition compared with cyclotraxin-B” value was “similarly to cyclotraxin-B”. Further, in the series on mice [2], the “EPM number of entries in open arms” value was “significantly increased” and the “EPM time spent in open arms” value was “significantly increased”. The “TrkB inhibition compared with cyclotraxin-B” value in series [3] is recorded as “similarly to cyclotraxin-B”. The “detection in brain after intravenous injection” value in series [4] is given as “detected in many brain structures”. Further, the “decrease in TrkB activity, slice incubation” value with TrkB in brain slices was determined as 52.0±3.9%.
